Data published in publication PMC9715718.

Key:
[1] = target: RhlR-ATTO488 (Pseudomonas aeruginosa) (UniProt P54292); test: MST; PqsE diluted 1:1 from 10 µM, RhlR-ATTO488 at 20 nM; 50 mM Tris pH 8.0, 300 mM NaCl, 5% glycerol, 50 µM mBTL, 0.05% Tween; 25 °C
[2] = target: PqsE (purified, affinity tag removed) (Pseudomonas aeruginosa) (UniProt P20581); test: SEC-MALS; Superdex 200 Increase column in SEC buffer, 40-150 µg of protein applied

Substance	Kd [1]	stoichiometry N (RhlR per PqsE (2:2 complex)) [2]
PqsE (purified, affinity tag removed) (from UniProt P20581) (enzyme)	146 nM	–
RhlR (untagged, co-expressed with His6-PqsE) (from UniProt P54292) (natural protein)	–	1
